# From patent US20180044427A1 (Janssen / Centocor, published 2018)
# T1: human FcγRIIB (NM_004001) (human, UniProt P31994 43-310)
# T1 construct: Transiently expressed on Expi293F cells
# T1 sequence: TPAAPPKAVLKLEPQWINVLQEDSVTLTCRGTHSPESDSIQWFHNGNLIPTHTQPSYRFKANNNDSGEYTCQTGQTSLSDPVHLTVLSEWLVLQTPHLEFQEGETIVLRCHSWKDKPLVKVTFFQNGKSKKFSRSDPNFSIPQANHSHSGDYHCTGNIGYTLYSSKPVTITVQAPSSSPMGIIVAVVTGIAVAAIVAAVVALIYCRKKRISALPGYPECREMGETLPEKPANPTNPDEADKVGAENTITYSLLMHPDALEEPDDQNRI
# T2: human FcγRIIA (NM_021642) (human, UniProt P12318 36-317)
# T2 construct: Transiently expressed on Expi293F cells
# T2 sequence: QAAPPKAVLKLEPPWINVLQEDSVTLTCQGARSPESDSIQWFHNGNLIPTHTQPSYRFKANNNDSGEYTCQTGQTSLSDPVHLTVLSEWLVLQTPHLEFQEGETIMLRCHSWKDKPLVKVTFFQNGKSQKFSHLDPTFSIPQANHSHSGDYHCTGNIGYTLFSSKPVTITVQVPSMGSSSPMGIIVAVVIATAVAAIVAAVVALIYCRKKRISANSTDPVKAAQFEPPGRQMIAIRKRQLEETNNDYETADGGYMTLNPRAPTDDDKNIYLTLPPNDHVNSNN
# How the values were obtained:
# [1] = molecular target: T3, recombinant human FcRn extracellular domain with a poly-histidine affinity tag (FcRn-His6) (human, UniProt P55899 24-297); test: competitive binding assay on plate-captured FcRn-His6 at pH 6.0; competitor: biotinylated human IgG1 indicator antibody at 1 µg/mL
# T3 construct: extracellular domain
# T3 sequence (P55899 24-297, form in doubt): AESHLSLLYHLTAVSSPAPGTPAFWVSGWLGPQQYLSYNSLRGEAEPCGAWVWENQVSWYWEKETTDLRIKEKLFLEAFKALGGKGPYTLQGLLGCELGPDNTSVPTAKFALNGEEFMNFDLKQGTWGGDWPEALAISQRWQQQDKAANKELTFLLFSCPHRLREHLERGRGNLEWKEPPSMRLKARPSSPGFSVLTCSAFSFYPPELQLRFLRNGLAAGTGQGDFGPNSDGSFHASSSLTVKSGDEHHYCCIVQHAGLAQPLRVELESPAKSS
# Description: A competitive binding assay was used to assess relative affinities of different antibody samples to a recombinant human FcRn extracellular domain with a poly-histidine affinity tag (FcRn-His6). Ninety-six-well copper-coated plates (Thermo Scientific) were used to capture FcRn-His6 at 5 μg/mL in PBS, after which plates were washed with 0.15M NaCl, 0.02% Tween 20, and then incubated with blocking reagent (0.05M MES [2-(N-morpholino) ethanesulfonic acid], 0.025% bovine serum albumin (BSA), 0.001% Tween-20, pH 6.0, 10% chemiBLOCKER (Millipore)). […] Plates were incubated at room temperature for 1 hour, washed three times as above, and then incubated with a 1:10,000 dilution of streptavidin-horseradish peroxidase (HRP) (Jackson ImmunoResearch Laboratories) at room temperature for 30 minutes to bind biotinylated antibody. Plates were washed five times as above, and bound streptavidin-HRP detected by adding TMB (3,3′,5,5′-tetramethylbenzidine) peroxidase substrate with stable stop (Fitzgerald Industries International) and incubating for 4 minutes. Color development was stopped by addition of 0.5 M HCl. Optical densities were determined with a SpectraMax Plus384 plate reader (Molecular Devices) at 450 nm wavelength.
# [2] = molecular target: T1, human FcγRIIB (NM_004001); test: flow cytometry on transiently transfected Expi293F cells
# Description: (§1) Plasmids expressing cDNAs encoding human FcγRI (NM_000566) (SEQ ID NO: 59), FcγRIIA (NM_021642) (SEQ ID NO: 60), FcγRIIB (NM_004001) (SEQ ID NO: 61), and FcγRIIIA (NM_000569) (SEQ ID NO: 62) (Origene) were transiently transfected into Expi293F cells by ExpiFectamine293 transfection kit (Life Technologies). Flow cytometry assays were performed 48 h after transfection. […] Raji cells (ATCC: CCL-86) were also employed to test the binding of anti-OX40 antibody to FcγRIIB receptor.
# (§2) 2×10⁵ cells per well were seeded in 96-well plate and blocked in BSA Stain Buffer (BD Biosciences, San Jose, USA) for 30 min at 4° C. Cells were incubated with test antibody on ice for 1.5 h at 4° C. After being washed twice with BSA stain buffer, the cells were incubated with R-PE labeled anti-human or anti-mouse IgG secondary antibody (Jackson Immunoresearch Laboratories) for 45 min at 4° C. The cells were washed twice in stain buffer and then resuspended in 150 μL of Stain Buffer containing 1:200 diluted DRAQ7 live/dead stain (Cell Signaling Technology, Danvers, USA). PE and DRAQ7 signals of the stained cells were detected by Miltenyi MACSQuant flow cytometer (Miltenyi Biotec, Auburn, USA) using B2 and B4 channel respectively. Live cells were gated on DRAQ7 exclusion and the geometric mean fluorescence signals were determined for at least 10,000 live events collected. FlowJo software (Tree Star) was used for analysis. Data was plotted as the logarithm of antibody concentration versus mean fluorescence signals. Nonlinear regression analysis was performed by GraphPad Prism 6 (GraphPad Software, Inc.) and EC₅₀ values were calculated.
# (§3) The binding of engineered anti-OX40 SF2 antibodies to various FcγR receptors expressed on transiently-transfected Expi293F cells were assessed by flow cytometry as described in Example 3.
# [3] = molecular target: T4, human FcγRI (NM_000566) (human, UniProt P12314 16-374); test: as above
# T4 construct: Transiently expressed on Expi293F cells
# T4 sequence (P12314 16-374 limits assumed): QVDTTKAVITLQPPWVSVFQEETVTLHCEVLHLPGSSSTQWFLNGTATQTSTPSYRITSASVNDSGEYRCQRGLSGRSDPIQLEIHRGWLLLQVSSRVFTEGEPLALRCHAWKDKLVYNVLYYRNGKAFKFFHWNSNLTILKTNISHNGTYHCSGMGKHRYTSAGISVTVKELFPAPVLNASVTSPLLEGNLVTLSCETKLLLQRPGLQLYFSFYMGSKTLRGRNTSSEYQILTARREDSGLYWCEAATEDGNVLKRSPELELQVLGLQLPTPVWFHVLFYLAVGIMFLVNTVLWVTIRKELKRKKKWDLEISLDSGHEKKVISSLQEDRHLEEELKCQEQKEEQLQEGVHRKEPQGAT
# Description: as §1, §2, §3
# [4] = molecular target: T5, human FcγRIIIA (NM_000569) (human, UniProt P08637 17-254); test: as above
# T5 construct: Transiently expressed on Expi293F cells
# T5 sequence (P08637 17-254 limits assumed): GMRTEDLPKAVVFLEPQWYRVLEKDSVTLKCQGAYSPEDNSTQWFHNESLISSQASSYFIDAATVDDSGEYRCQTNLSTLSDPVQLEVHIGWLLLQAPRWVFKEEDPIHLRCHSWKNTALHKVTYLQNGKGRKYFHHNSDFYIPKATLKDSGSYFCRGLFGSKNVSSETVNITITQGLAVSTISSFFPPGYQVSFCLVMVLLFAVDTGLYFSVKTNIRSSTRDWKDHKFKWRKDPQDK
# Description: as §1, §2, §3
# [5] = molecular target: T2, human FcγRIIA (NM_021642); test: as above
# Description: as §1, §2, §3
Binder,IC50 [1] [µg/mL],EC50 [2] [µg/mL],EC50 [3] [µg/mL],EC50 [4] [µg/mL],EC50 [5] [µg/mL]
"OX40SF2IgG1T437R (antibody, also called SF2 antibody with T437R) heavy: not shown VL: DIQMTQSPSSLSASVGDRVTITCKASQDVGAAVAWYQQKPGKAPKLLIYWASTRHTGVPSRFSGSGSGTDFTLTISSLQPEDFATYYCQQYINYPLTFGGGTKVEIK",1.1,> 10,0.24,1.14,4.13
OX40SF2IgG1T437R/K248E (antibody) heavy: not shown VL: DIQMTQSPSSLSASVGDRVTITCKASQDVGAAVAWYQQKPGKAPKLLIYWASTRHTGVPSRFSGSGSGTDFTLTISSLQPEDFATYYCQQYINYPLTFGGGTKVEIK,1.6,> 10,0.248,1.56,3.39
OX40SF2IgG1 (antibody) chain 1: not shown chain 2: DIQMTQSPSSLSASVGDRVTITCKASQDVGAAVAWYQQKPGKAPKLLIYWASTRHTGVPSRFSGSGSGTDFTLTISSLQPEDFATYYCQQYINYPLTFGGGTKVEIKRTVAAPSVFIFPPSDEQLKSGTASVVCLLNNFYPREAKVQWKVDNALQSGNSQESVTEQDSKDSTYSLSSTLTLSKADYEKHKVYACEVTHQGLSSPVTKSFNRGEC,–,> 10,0.326,0.744,4.56
